In US20220227830A1, “QD DOSING OF GIP RECEPTOR AGONIST PEPTIDE COMPOUNDS AND USES THEREOF” (Takeda Pharmaceutical Company Limited, priority 2020, published 2022):
Starred links: 1 amine or outer side, 2 acyl side, 3 side chain; linkers in the order of their positions; H or OH if unused. Non-standard residues stand in square brackets, D forms with d. Groups on a side chain read outwards from the residue. No end group written: not given here. *: point of attachment. C16 diacid = O=C(O)CCCCCCCCCCCCCCC(=O)*; C15 diacid = O=C(O)CCCCCCCCCCCCCC(=O)*; γGlu = O=C(O)[C@H](CCC(=O)[*:2])N[*:1]; NMeY = CN[C@@H](Cc1ccc(O)cc1)C(=O)O; Palmitoyl = CCCCCCCCCCCCCCCC(=O)*; AEEA = NCCOCCOCC(=O)O; Aib = CC(C)(N)C(=O)O; C16 = lipid C16

T1: full-length human GIPR with an N-terminal FLAG tag, overexpressed on HEK-293T cells (human, UniProt P48546 22-466)
T1 sequence (looked up): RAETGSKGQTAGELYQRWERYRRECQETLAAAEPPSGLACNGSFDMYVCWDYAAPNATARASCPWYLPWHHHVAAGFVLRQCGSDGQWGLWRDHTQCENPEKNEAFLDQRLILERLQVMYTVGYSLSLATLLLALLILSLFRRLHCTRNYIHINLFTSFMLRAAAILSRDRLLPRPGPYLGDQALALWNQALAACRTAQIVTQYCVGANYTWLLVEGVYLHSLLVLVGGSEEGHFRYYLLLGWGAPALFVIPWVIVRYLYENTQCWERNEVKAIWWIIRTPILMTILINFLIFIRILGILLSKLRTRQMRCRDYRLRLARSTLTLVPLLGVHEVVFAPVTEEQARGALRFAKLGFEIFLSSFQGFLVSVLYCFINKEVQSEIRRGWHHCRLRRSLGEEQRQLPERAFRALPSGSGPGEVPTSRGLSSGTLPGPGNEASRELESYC

T2: full-length human GIPR with an N-terminal FLAG tag (human, UniProt P48546 22-466)
T2 sequence (looked up): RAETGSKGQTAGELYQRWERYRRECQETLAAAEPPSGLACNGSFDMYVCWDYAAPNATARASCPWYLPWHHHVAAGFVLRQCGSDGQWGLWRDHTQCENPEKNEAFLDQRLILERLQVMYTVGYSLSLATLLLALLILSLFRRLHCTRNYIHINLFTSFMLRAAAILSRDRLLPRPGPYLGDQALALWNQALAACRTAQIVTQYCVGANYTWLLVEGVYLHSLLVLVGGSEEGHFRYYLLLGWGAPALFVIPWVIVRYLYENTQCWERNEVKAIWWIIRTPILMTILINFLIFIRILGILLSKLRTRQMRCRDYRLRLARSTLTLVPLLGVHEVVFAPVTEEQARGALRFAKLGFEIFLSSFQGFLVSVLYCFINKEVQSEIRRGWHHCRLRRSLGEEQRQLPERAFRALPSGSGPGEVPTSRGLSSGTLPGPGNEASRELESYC


Experiments:
[1] = target: T1, full-length human GIPR with an …; assay: cell-based or functional assay
[2] = target: full-length human GLP-1R with an N-terminal FLAG tag, overexpressed on HEK-293T cells (human, UniProt P43220 24-463); assay: cell-based or functional assay
[3] = target: T2, full-length human GIPR with an …; assay: cell-based or functional assay
[4] = target: full-length human GLP-1R with an N-terminal FLAG tag (human, UniProt P43220 24-463); assay: cell-based or functional assay
[5] = target: human plasma proteins; assay: plasma protein binding, ultracentrifugation of spiked plasma, LC-MS/MS

| Binder | Human GIPR cAMP, HEK293T EC50 [1] | Human GLP1R cAMP HEK293T EC50 [2] | Human GIPR cAMP, HEK293T EC50 [3] | Human GLP1R cAMP HEK293T EC50 [4] | Human PPB (Fu,plasma), fraction unbound (fraction unbound) [5] |
| --- | --- | --- | --- | --- | --- |
| Me-Y[Aib]EGTFISDYSIAK([AEEA-AEEA-γGlu-C16 diacid])DRIAQ[Aib]NFVNWLLAQK [Compound 196] | 0.0002 nM | 692 nM |  |  |  |
| [NMeY][Aib]EGTFISDYSIALDR[Aib]AQ[Aib]K([AEEA-γGlu-γGlu-γGlu-C15 diacid])FVNWLL[Aib]QK-NH2 (N-terminus assumed; SMILES CC[C@H](C)[C@H](NC(=O)[C@H](CO)NC(=O)[C@H](Cc1ccc(O)cc1)NC(=O)[C@H](CC(=O)O)NC(=O)[C@H](CO)NC(=O)[C@@H](NC(=O)[C@H](Cc1ccccc1)NC(=O)[C@@H](NC(=O)CNC(=O)[C@H](CCC(=O)O)NC(=O)C(C)(C)NC(=O)[C@H](Cc1ccc(O)cc1)NC)[C@@H](C)O)[C@@H](C)CC)C(=O)N[C@@H](C)C(=O)N[C@@H](CC(C)C)C(=O)N[C@@H](CC(=O)O)C(=O)N[C@@H](CCCNC(=N)N)C(=O)NC(C)(C)C(=O)N[C@@H](C)C(=O)N[C@@H](CCC(N)=O)C(=O)NC(C)(C)C(=O)N[C@@H](CCCCNC(=O)COCCOCCNC(=O)CC[C@H](NC(=O)CC[C@H](NC(=O)CC[C@H](NC(=O)CCCCCCCCCCCCCC(=O)O)C(=O)O)C(=O)O)C(=O)O)C(=O)N[C@@H](Cc1ccccc1)C(=O)N[C@H](C(=O)N[C@@H](CC(N)=O)C(=O)N[C@@H](Cc1c[nH]c2ccccc12)C(=O)N[C@@H](CC(C)C)C(=O)N[C@@H](CC(C)C)C(=O)NC(C)(C)C(=O)N[C@@H](CCC(N)=O)C(=O)N[C@@H](CCCCN)C(N)=O)C(C)C) [Compound 29] |  |  | 0.0001 nM | 47.1 nM | 0.018 |
| Me-Y[Aib]EGTFISDYSIALDR[Aib]AQ[Aib]K([2OEG-γGlu-γGlu-γGlu-C15 diacid])FVNWLLAQKG-OH [Compound 201] | 0.0002 nM | 9.12 nM |  |  |  |
| Me-Y[dA]EGTFISDYSIALDR[Aib]AQ[Aib]K([2OEG-γGlu-γGlu-C15 diacid])FVNWLLAQKG-OH [Compound 216] | 0.0003 nM | 34.7 nM |  |  |  |
| Me-Y[Aib]EGTFISDYSIALDR[Aib]AQ[Aib]K([2OEG-γGlu-γGlu-C15 diacid])FVNWLLAQKG-NH2 [Compound 205] | 0.0002 nM | 13.5 nM |  |  |  |
| Me-Y[Aib]EGTFISDYSIALDR[Aib]AQ[Aib]K([2OEG-γGlu-γGlu-C15 diacid])FVNWLLAQKPSSGAPPPS-NH2 [Compound 209] | 0.0003 nM | 479 nM |  |  |  |
| [NMeY][Aib]EGTFISDYSIAK([Gly-Gly-Glu-Glu-Glu-C15 diacid])DR[Aib]AQ[Aib]NFVNWLLAQK-NH2 (not fully specified) [Compound 30] |  |  |  |  | 0.0407 |
| [NMeY][Aib]EGTFISDYSI[Aib]LDR[Aib]AQ[Aib]K([AEEA-AEEA-γGlu-γGlu-Palmitoyl])FVNWLLAQRG-OH (not fully specified (N-terminus)) [Compound 203] | 0.003 nM | 2.63 nM |  |  |  |
| Me-YGEGTFISDYSIALDR[Aib]AQ[Aib]K([2OEG-γGlu-γGlu-C15 diacid])FVNWLLAQKG-OH [Compound 206] | 0.0013 nM | 145 nM |  |  |  |
| Me-Y[Aib]EGTFISDYSIALDR[Aib]AQ[Aib]KFVNWLLAQKG-OH (not fully specified (residues 1, 21)) [Compound 212] | 0.0002 nM | 66.1 nM |  |  |  |
| Me-Y[Aib]EGTFISDYSIALDR[Aib]AQ[Aib]K([2OEG-γGlu-C15 diacid])FVNWLLAQKG-OH [Compound 213] | 0.0003 nM | 17 nM |  |  |  |
| Me-Y[Aib]EGTFISDYSIALDR[Aib]AQ[Aib]K([2OEG-C15 diacid])FVNWLLAQKG-OH [Compound 218] | 0.0006 nM | 89.1 nM |  |  |  |
| Me-YAEGTFISDYSIALDR[Aib]AQ[Aib]K([2OEG-γGlu-γGlu-C15 diacid])FVNWLLAQKG-OH [Compound 217] | 0.0002 nM | 4.9 nM |  |  |  |
| [NMeY][Aib]EGTFISDYSIALDR[Aib]AQ[Aib]K([AEEA-γGlu-γGlu-γGlu-C15 diacid])FVNWLLAQK-NH2 (N-terminus assumed; SMILES CC[C@H](C)[C@H](NC(=O)[C@H](CO)NC(=O)[C@H](Cc1ccc(O)cc1)NC(=O)[C@H](CC(=O)O)NC(=O)[C@H](CO)NC(=O)[C@@H](NC(=O)[C@H](Cc1ccccc1)NC(=O)[C@@H](NC(=O)CNC(=O)[C@H](CCC(=O)O)NC(=O)C(C)(C)NC(=O)[C@H](Cc1ccc(O)cc1)NC)[C@@H](C)O)[C@@H](C)CC)C(=O)N[C@@H](C)C(=O)N[C@@H](CC(C)C)C(=O)N[C@@H](CC(=O)O)C(=O)N[C@@H](CCCNC(=N)N)C(=O)NC(C)(C)C(=O)N[C@@H](C)C(=O)N[C@@H](CCC(N)=O)C(=O)NC(C)(C)C(=O)N[C@@H](CCCCNC(=O)COCCOCCNC(=O)CC[C@H](NC(=O)CC[C@H](NC(=O)CC[C@H](NC(=O)CCCCCCCCCCCCCC(=O)O)C(=O)O)C(=O)O)C(=O)O)C(=O)N[C@@H](Cc1ccccc1)C(=O)N[C@H](C(=O)N[C@@H](CC(N)=O)C(=O)N[C@@H](Cc1c[nH]c2ccccc12)C(=O)N[C@@H](CC(C)C)C(=O)N[C@@H](CC(C)C)C(=O)N[C@@H](C)C(=O)N[C@@H](CCC(N)=O)C(=O)N[C@@H](CCCCN)C(N)=O)C(C)C) [Compound 24] |  |  |  |  | 0.0512 |
| Y[Aib]EGTFISDYSIALDR[Aib]AQ[Aib]K([AEEA-AEEA-γGlu-γGlu-C15 diacid])FVNWLLAQKG-OH (not fully specified (residue 1)) [Compound 188] | 0.0003 nM | 22.9 nM |  |  |  |
| Me-Y[Aib]EGTFISDYSIALDR[Aib]AQ[Aib]K([G5gEgE-C15 diacid])FVNWLLAQKG-OH [Compound 215] | 0.0002 nM | 45.7 nM |  |  |  |
| Me-Y[Aib]EGTFISDYSIALDR[Aib]AQ[Aib]K([2OEG-γGlu-γGlu-C15 diacid])FVNWLLAQK-NH2 [Compound 210] | 0.0003 nM | 129 nM |  |  |  |
| YGEGTFISDYSIAK([AEEA-AEEA-γGlu-C16 diacid])DRIHQQNFVNWLLAQK [Compound 192] | 0.148 nM | 741 nM |  |  |  |
| Me-Y[Aib]EGTFISDYSIALDR[Aib]HQ[Aib]NFVNWK([γGlu-C16])LAQR-NH2 [Compound 190] | 0.0158 nM | 1000 nM |  |  |  |
| [NMeY][Aib]EGTFISDYSIAK([AEEA-AEEA-γGlu-γGlu-C15 diacid])DR[Aib]AQ[Aib]NFVNWLLAQK-NH2 (N-terminus assumed; SMILES CC[C@H](C)[C@H](NC(=O)[C@H](CO)NC(=O)[C@H](Cc1ccc(O)cc1)NC(=O)[C@H](CC(=O)O)NC(=O)[C@H](CO)NC(=O)[C@@H](NC(=O)[C@H](Cc1ccccc1)NC(=O)[C@@H](NC(=O)CNC(=O)[C@H](CCC(=O)O)NC(=O)C(C)(C)NC(=O)[C@H](Cc1ccc(O)cc1)NC)[C@@H](C)O)[C@@H](C)CC)C(=O)N[C@@H](C)C(=O)N[C@@H](CCCCNC(=O)COCCOCCNC(=O)COCCOCCNC(=O)CC[C@H](NC(=O)CC[C@H](NC(=O)CCCCCCCCCCCCCC(=O)O)C(=O)O)C(=O)O)C(=O)N[C@@H](CC(=O)O)C(=O)N[C@@H](CCCNC(=N)N)C(=O)NC(C)(C)C(=O)N[C@@H](C)C(=O)N[C@@H](CCC(N)=O)C(=O)NC(C)(C)C(=O)N[C@@H](CC(N)=O)C(=O)N[C@@H](Cc1ccccc1)C(=O)N[C@H](C(=O)N[C@@H](CC(N)=O)C(=O)N[C@@H](Cc1c[nH]c2ccccc12)C(=O)N[C@@H](CC(C)C)C(=O)N[C@@H](CC(C)C)C(=O)N[C@@H](C)C(=O)N[C@@H](CCC(N)=O)C(=O)N[C@@H](CCCCN)C(N)=O)C(C)C) [Compound 22] |  |  |  |  | 0.0413 |
| Me-Y[Aib]EGTFISDYSIALDR[Aib]AQ[Aib]K([2OEG-γGlu-γGlu-C15 diacid])FVNWLLAQRG-OH [Compound 211] | 0.0002 nM | 174 nM |  |  |  |
